Measurements: US20200207841A1 (MIT, published 2020)
Numbering of substitutions follows the chain as printed. Names and notes keep the numbering of the source.

B1: VH_G27P (antibody, V domains shown)
VH: VKLLEQSGAELVKPGASVRLSCTASPFNIKDTYMSWVKQRPEQGLEWIGRIDPENGDTKYDPKFQGKATITADTSSNTAYLHLSSLTSGDTAVYYCSRGWEGFAYWGQGTLVTVSA
VL: ELVMTQTPASLAVSLGQRATISCRASENVDKYGNSFMHWYQQKAGQPPKLLIYRASELQWGIPARFSGSGSRTDFTLTINPVEADDVATYFCQRSNEVPWTFGGGTKLEIK
notes: also called 4E5-G27P; copies: 2 + 2
B2: VH_G27A (antibody, V domains shown)
VH: B1 VH with P26A
VL: ELVMTQTPASLAVSLGQRATISCRASENVDKYGNSFMHWYQQKAGQPPKLLIYRASELQWGIPARFSGSGSRTDFTLTINPVEADDVATYFCQRSNEVPWTFGGGTKLEIKR
B3: VH_Y106R (antibody, V domains shown)
VH: B1 VH with P26G, Y105R
VL: B1 VL
notes: copies: 2 + 2
B4: VH_G27_del (antibody, V domains shown)
VH: VKLLEQSGAELVKPGASVRLSCTASFNIKDTYMSWVKQRPEQGLEWIGRIDPENGDTKYDPKFQGKATITADTSSNTAYLHLSSLTSGDTAVYYCSRGWEGFAYWGQGTLVTVSA
VL: B2 VL
B5: VH_A25_del (antibody, V domains shown)
VH: B4 VH with A24S, S25G
VL: B1 VL
notes: also called 4E5-del-25; copies: 2 + 2
B6: VH_S26_del (antibody, V domains shown)
VH: B4 VH with S25G
VL: B2 VL
B7: 4E5A (antibody, V domains shown)
VH: B1 VH with P26G
VL: B2 VL
notes: also called 4E11-5A; E45A
B8: VH_G27P single chain Fv on yeast (scFv, V domains shown)
VH: B1 VH
VL: B2 VL
B9: VH_G27A single chain Fv on yeast (scFv, V domains shown)
VH: B1 VH with P26A
VL: B2 VL
B10: 4E5A single chain Fv on yeast (scFv, V domains shown)
VH: B1 VH with P26G
VL: B2 VL
notes: also called 4E5A scFv
B11: 4E11 VH-A55E (antibody, V domains shown)
VH: B1 VH with P26G
VL: B2 VL with K31R, E57N, Q59E, W60S
B12: 4E11 VL-N57E (antibody, V domains shown)
VH: B1 VH with P26G, E54A
VL: B2 VL with K31R, Q59E, W60S
B13: 4E11 VL-E59Q (antibody, V domains shown)
VH: B1 VH with P26G, E54A
VL: B2 VL with K31R, E57N, W60S

Target: T1, EDIII-DV4 (Dengue virus serotype 4 (DV4), UniProt P09866 580-672)
T1 construct: also called EDIII of DV4; DV4 EDIII
Experiment: competition ELISA; affinity relative to 4E5A

| Binder | REL AFFINITY |
| --- | --- |
| B1 | 0.06 |
| B2 | 2.92 |
| B3 | 0.46 |
| B4 | 4.78 |
| B5 | 0.54 |

Target: T2, EDIII-DV1 (Dengue virus serotype 1 (DV1), UniProt P17763 581-673)
T2 construct: also called EDIII of DV1; EDIII-DVI
Experiment: competition ELISA; affinity relative to 4E5A

| Binder | REL AFFINITY |
| --- | --- |
| B1 | 0.08 |
| B6 | > 1.23 |
| B2 | > 1.23 |
| B3 | > 1.23 |
| B4 | > 1.23 |
| B5 | 0.29 |

Target: T3, EDIII-DV3 (Dengue virus serotype 3 (DV3), UniProt Q6YMS3 579-671)
T3 construct: also called EDIII of DV3; EDIII-DVIII
Experiment: competition ELISA; affinity relative to 4E5A

| Binder | REL AFFINITY |
| --- | --- |
| B1 | 0.73 |
| B6 | 4.42 |
| B2 | 1.17 |
| B3 | 0.72 |
| B4 | 2.67 |
| B5 | 1.22 |

Target: T1, EDIII-DV4
Experiment: not given

| Binder | Kd [nM] | koff [s⁻¹] | kon [M⁻¹ s⁻¹] |
| --- | --- | --- | --- |
| B2 | 22.1 | 0.0406 | 1.83e+06 |
| B4 | 8.04 | 0.0188 | 2.34e+06 |
| B5 | 25.9 | 0.13 | 4.99e+06 |

Target: T3, EDIII-DV3
Experiment: not given

| Binder | Kd [nM] | koff [s⁻¹] | kon [M⁻¹ s⁻¹] |
| --- | --- | --- | --- |
| B7 | 2.72 |  |  |
| B1 | 4.52 | 0.0133 | 2.95e+06 |
| B6 | 2.6 |  |  |
| B2 | 3.24 | 7.54 |  |
| B4 | 2.39 | 0.0483 | 2.02e+07 |
| B5 | 5.4 | 0.0269 | 4.98e+06 |

Target: T1, EDIII-DV4
Experiment: scFv displayed on yeast (YSD), soluble tagged EDIII-DV4 titrated, read by FACS

| Binder | Kd [nM] |
| --- | --- |
| B8 | 53300 |
| B9 | 185 |
| B10 | 650 |

Target: T1, EDIII-DV4
Experiment: competition ELISA

| Binder | fold affinity enhancement relative to 4E11 WT [fold] |
| --- | --- |
| B11 | 9.2 |

Target: T1, EDIII-DV4
Experiment: calculated from KD, relative to 4E11 WT

| Binder | ΔΔG (ΔGmutant - ΔGWT) [kcal/mol] |
| --- | --- |
| B12 | -0.93 |
| B13 | -0.77 |
| B11 | -1.31 |

Target: DV2 (Dengue virus serotype 2, virus used in FRNT) (Dengue virus serotype 2 (DV2))
Experiment: cell-based or functional assay

| Binder | FRNT50 (focus reduction neutralization test) [µg/mL] |
| --- | --- |
| B7 | 0.028 |

Target: DV1 (Dengue virus serotype 1, virus used in FRNT) (Dengue virus serotype 1 (DV1))
Experiment: cell-based or functional assay

| Binder | FRNT50 (focus reduction neutralization test) [µg/mL] |
| --- | --- |
| B7 | 0.19 |

Target: DV3 (Dengue virus serotype 3, virus used in FRNT) (Dengue virus serotype 3 (DV3))
Experiment: cell-based or functional assay

| Binder | FRNT50 (focus reduction neutralization test) [µg/mL] |
| --- | --- |
| B7 | 0.77 |

Target: DV4 (Dengue virus serotype 4, virus used in FRNT) (Dengue virus serotype 4 (DV4))
Experiment: cell-based or functional assay

| Binder | FRNT50 (focus reduction neutralization test) [µg/mL] |
| --- | --- |
| B7 | 4 |

Target: T2, EDIII-DV1
Experiment: not given

| Binder | Kd [nM] | koff [s⁻¹] | kon [M⁻¹ s⁻¹] |
| --- | --- | --- | --- |
| B7 | 0.217 |  |  |
| B1 | 2.76 | 0.00841 | 3.05e+06 |
| B6 | 0.118 |  |  |
| B2 | 0.0805 | 8.38e-05 | 1.04e+06 |
| B4 | 0.31 | 0.000471 | 1.52e+06 |
| B5 | 1.43 | 0.00133 | 933000 |

Target: T4, EDIII-DV2 (Dengue virus serotype 2 (DV2), UniProt P14337 581-673)
T4 construct: also called EDIII of DV2; EDIII-DVII
Experiment: not given

| Binder | Kd [nM] | koff [s⁻¹] | kon [M⁻¹ s⁻¹] |
| --- | --- | --- | --- |
| B7 | 0.129 |  |  |
| B1 | 0.265 | 0.000527 | 1.99e+06 |
| B6 | 0.104 |  |  |
| B2 | 0.202 |  | 2.08e+06 |
| B4 | 0.269 | 0.000563 | 2.09e+06 |
| B5 |  | 0.000182 | 2.74e+06 |

Target: T1, EDIII-DV4
Experiment: not given
Remark: another data set of the same source

| Binder | Kd [nM] |
| --- | --- |
| B1 | 1970 |
| B2 | 43.2 |
| B3 | 272 |
| B4 | 26.4 |
| B5 | 236 |

Target: T2, EDIII-DV1
Experiment: not given
Remark: another data set of the same source

| Binder | Kd [nM] |
| --- | --- |
| B7 | 0.368 |
| B1 | 4.58 |
| B6 | < 0.3 |
| B2 | < 0.3 |
| B3 | < 0.3 |
| B4 | < 0.3 |
| B5 | 1.27 |

Target: T4, EDIII-DV2
Experiment: not given
Remark: another data set of the same source

| Binder | Kd [nM] |
| --- | --- |
| B7 | < 0.3 |
| B6 | < 0.3 |
| B2 | < 0.3 |
| B4 | < 0.3 |
| B5 | < 0.3 |

Target: T3, EDIII-DV3
Experiment: not given
Remark: another data set of the same source

| Binder | Kd [nM] |
| --- | --- |
| B7 | 24.2 |
| B1 | 33.1 |
| B6 | 5.47 |
| B2 | 20.6 |
| B3 | 33.4 |
| B4 | 9.05 |
| B5 | 19.8 |

Target: T1, EDIII-DV4
Experiment: not given
Remark: another data set of the same source

| Binder | Kd [nM] |
| --- | --- |
| B12 | 8410 |
| B13 | 11000 |
| B11 | 4440 |

Target: T1, EDIII-DV4
Experiment: calculated from KD, ΔG = RTln(KD) at 25° C.

| Binder | ΔG [kcal/mol] |
| --- | --- |
| B12 | -6.92 |
| B13 | -6.76 |
| B11 | -7.29 |
